Measurements reported in patent US20060083713A1.

Columns and labels:
[1] = target: LP-48-FLAG fusion polypeptide (human LP-48 / IL-17C, mature, with the FLAG epitope fused to the native C-terminus) (human) (UniProt Q9P0M4); assay: HUVEC incubated with 5 ug/ml LP-48, then control antibodies and 125I-protein A (radioimmunoassay)
[2] = target: cell surface of HUVEC (human umbilical vein endothelial cells); LP-48 binding partner not identified (human); assay: HUVEC incubated with 5 ug/ml LP-48; bound LP-48 detected with anti-LP-48 antibodies and 125I-protein A (radioimmunoassay)

| 125I-Protein A Bound (CPM) [1] [CPM] | 125I-Protein A Bound (CPM) [2] [CPM] | Molecule |
| --- | --- | --- |
| 317 |  | control antibodies to an unrelated protein (antibody) |
|  | 5630 | LP-48-FLAG fusion polypeptide (human LP-48 / IL-17C, mature, with the FLAG epitope fused to the native C-terminus) (ligand) HHDPSLRGHPHSHGTPHCYSAEELPLGQAPPHLLARGAKWGQALPVALVSSLEAASHRGRHERPSATTQCPVLRPEEVLEADTHQRSISPWRYRVDTDEDRYPQKLAFAECLCRGCIDARTGRETAALNSVRLLQSLLVLRRRPCSRDGSGLPTPGAFAFHTEFIHVPVGCTCVLPRSVDYKDDDDK |
